In experiment [1] the target is T1, murine CD22 protein (ACROBiosystems, SI2-M52Ha) (murine, UniProt P35329 22-708).
T1 construct: extracellular domain; also called murine CD22-ECD; murine CD22-ECD-His
T1 sequence (looked up): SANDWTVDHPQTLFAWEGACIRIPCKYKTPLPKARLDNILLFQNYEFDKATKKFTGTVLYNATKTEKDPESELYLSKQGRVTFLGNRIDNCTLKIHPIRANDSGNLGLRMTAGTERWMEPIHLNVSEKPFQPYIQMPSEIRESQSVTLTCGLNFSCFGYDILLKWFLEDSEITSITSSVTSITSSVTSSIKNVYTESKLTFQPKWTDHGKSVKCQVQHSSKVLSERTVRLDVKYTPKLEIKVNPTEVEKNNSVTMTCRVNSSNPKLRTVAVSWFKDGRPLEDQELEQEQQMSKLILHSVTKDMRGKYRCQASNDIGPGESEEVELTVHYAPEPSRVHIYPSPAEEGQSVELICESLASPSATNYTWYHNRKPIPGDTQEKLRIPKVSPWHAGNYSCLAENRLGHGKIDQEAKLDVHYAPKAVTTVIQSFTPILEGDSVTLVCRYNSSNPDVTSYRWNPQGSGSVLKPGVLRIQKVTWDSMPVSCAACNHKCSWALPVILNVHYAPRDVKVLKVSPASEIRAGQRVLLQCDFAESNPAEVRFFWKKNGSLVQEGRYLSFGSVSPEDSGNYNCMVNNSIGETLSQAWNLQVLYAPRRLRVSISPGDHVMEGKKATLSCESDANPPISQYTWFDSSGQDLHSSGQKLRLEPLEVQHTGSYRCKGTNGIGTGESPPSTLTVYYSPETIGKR
Put plainly: ELISA, coated murine CD22, 0.1 nM Ab. In a few lines: (§1)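 Read-out is TMB absorbance after a 30 min room-temperature development stopped with 1.0 N HCl. It reflects chimeric antibody bound to plate-coated CD22 (2 μg/mL), detected with an HRP-labelled secondary antibody. Antibody and secondary incubations each ran 2 h at 37° C.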
A general note: In an ELISA, binding on a coated surface is turned into a signal by an enzyme label.

In experiment [2] the target is T1, murine CD22 protein (ACROBiosystems, …). Briefly: ELISA, coated murine CD22, 0.0001 nM Ab. The procedure, abridged: as §1
The target is the same in experiment [3]. Put plainly: ELISA, coated murine CD22, 10 nM Ab. The procedure, abridged: as §1
The target is the same in experiment [4]. Put plainly: ELISA, coated murine CD22, 0.001 nM Ab. In a few lines: as §1
The target is the same in experiment [5]. Briefly: ELISA, coated murine CD22, 100 nM Ab. The procedure, abridged: as §1
For experiment [6] the target is unchanged. Briefly: ELISA, coated murine CD22, 0.01 nM Ab. In a few lines: as §1
The target of experiment [7] is T2, human CD22, endogenous on Raji cells (human, UniProt P20273 20-847).
T2 construct: whole, on cells; Endogenous protein of the Raji cell line
T2 sequence (looked up): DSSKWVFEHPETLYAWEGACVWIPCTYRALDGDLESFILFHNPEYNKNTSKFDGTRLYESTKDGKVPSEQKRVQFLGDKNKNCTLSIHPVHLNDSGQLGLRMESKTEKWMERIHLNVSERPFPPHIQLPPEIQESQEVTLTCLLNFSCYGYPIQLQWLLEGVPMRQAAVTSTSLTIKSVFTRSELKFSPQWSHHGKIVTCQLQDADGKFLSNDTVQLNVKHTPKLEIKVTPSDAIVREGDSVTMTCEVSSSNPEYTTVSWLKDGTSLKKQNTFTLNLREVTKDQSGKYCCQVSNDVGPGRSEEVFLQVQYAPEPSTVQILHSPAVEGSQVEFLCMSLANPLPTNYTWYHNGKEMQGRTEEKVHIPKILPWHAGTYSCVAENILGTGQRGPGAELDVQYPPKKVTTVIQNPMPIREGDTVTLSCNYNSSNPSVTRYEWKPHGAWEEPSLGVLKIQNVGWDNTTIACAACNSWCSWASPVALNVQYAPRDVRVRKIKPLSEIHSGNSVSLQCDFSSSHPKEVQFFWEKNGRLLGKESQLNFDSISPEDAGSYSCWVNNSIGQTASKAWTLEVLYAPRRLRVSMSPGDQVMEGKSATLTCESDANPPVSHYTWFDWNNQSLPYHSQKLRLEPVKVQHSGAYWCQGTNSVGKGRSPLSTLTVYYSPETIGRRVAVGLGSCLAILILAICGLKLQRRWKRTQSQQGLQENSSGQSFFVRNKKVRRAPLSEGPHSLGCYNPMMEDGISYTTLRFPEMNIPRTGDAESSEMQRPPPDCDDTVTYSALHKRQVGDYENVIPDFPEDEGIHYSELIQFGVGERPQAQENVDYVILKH
Put plainly: FACS, Raji cells. The text has this: (§2) The required cells were scale-up cultured in a T-75 cell culture flask to the logarithmic growth phase. For the adherent cell CHO-K1, the medium was aspirated, the cells were washed 2 times with PBS buffer, and then digested with trypsin. After the digestion was terminated, the cells were washed 2 times with PBS buffer. For suspension cell Raji, the medium supernatant was directly centrifuged and discarded, and the cell pellet was washed 2 times with PBS. After counting the cells in the previous step, the cell pellet was resuspended with [PBS+2% (w/w) BSA] blocking solution to 2×10⁶ cells/ml, and added to a 96-well FACS reaction plate at 50 μl/well, and then the chimeric antibody test sample was added at 50 μl/well, and incubated on ice for 2 hours. The mixture was centrifuged and washed 3 times with PBS buffer, Alexa Flour 488-labeled secondary antibody (purchased from Invitrogen, catalog number: A-11013) was added at 50 μl/well, and incubated on ice for 1 hour. The obtained mixture was centrifuged and washed 5 times with PBS, and FACS (FACS Canto™, purchased from BD Company) was used for detection and result analysis. Data analysis was performed by software (CellQuest) to obtain the mean fluorescence density (MFI)of the cells. And then software (GraphPad Prism8) was used for analysis, data fitting, and EC50 value calculation. […] The same method was used to detect the binding of the chimeric antibodies to endogenous CD22-negative cell MoLT4 cells (purchased from ATCC, CRL-1582) and CHO-K1 cells.

Experiment [8] has as its target T3, human CD22, full length, on CHO-K1-human CD22 2C4 cells (human, UniProt P20273 20-847).
T3 construct: Full-length human CD22 (NCBI NP_001762.2) stably transfected into CHO-K1
T3 sequence: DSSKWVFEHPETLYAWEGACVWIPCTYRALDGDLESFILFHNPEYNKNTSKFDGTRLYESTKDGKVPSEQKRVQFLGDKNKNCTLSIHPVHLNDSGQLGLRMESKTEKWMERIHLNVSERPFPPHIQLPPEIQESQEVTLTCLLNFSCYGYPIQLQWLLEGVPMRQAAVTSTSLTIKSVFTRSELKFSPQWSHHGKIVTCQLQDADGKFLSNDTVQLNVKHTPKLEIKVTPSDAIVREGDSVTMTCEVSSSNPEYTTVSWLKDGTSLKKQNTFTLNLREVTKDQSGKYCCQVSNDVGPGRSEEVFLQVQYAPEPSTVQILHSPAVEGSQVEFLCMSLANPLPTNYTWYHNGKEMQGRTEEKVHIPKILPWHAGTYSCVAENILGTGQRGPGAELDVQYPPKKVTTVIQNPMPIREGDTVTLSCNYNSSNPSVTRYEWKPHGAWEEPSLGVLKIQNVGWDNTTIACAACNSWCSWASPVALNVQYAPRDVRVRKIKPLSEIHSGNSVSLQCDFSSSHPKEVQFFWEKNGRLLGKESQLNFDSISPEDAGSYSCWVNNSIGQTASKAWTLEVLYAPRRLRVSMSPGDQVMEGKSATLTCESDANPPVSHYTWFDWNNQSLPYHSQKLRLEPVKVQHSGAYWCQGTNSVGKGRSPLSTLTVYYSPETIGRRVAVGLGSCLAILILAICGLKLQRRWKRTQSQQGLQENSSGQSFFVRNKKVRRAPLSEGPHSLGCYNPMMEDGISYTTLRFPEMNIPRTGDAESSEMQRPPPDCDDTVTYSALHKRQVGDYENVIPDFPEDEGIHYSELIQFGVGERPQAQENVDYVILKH
Put plainly: FACS, CHO-K1-human CD22 2C4 cells.
Text: as §2
On the technique in general: Flow cytometry measures light scatter and fluorescence of single cells or particles in a stream.

The target of experiment [9] is T1, murine CD22 protein (ACROBiosystems, …). Put plainly: ELISA, coated murine CD22, 0.00001 nM Ab. The procedure, abridged: as §1

B1: F2.99.1 human-murine chimeric antibody (antibody, human IgG1, lambda, V domains shown)
VH: QVTLKESGPGILQPSQTLSLTCSFSGFSLSTFPMGVGWIRQPSGKGLEWLAHIWWDDDEYYNPVLKSRLTISKDTSKKQVYLRIANVDTVDTATYYCTRANWDRWYFDVWGTGTTVTVSS
VL: QLVLTQSSSASFSLGASAKLTCTLSRQHSAYTIEWYQQQPLKPPKYVMEVKKDGSHSTGDGIPDRFSGSSSGADRYLSISNIQPEDEAIYICGVGDTIKEHFVFGGGTKVTVLG
notes: Chimeric, human IgG1 / lambda; VL tied by name
One may read the EC50 as the concentration giving half of the maximal effect. Take B1: the OD450 turned out to be 0.05 OD450 in experiment [1]; 0.05 OD450 in [2]; 0.06 OD450 in experiment [3]; 0.05 OD450 in [4]; 0.07 OD450 in experiment [5]; 0.06 OD450 in experiment [6]. In experiment [9], this molecule gave an OD450 of 0.06 OD450. For the same molecule, the EC50 in [7] was determined as 0.59 nM; in experiment [8] it was 0.83 nM. In addition, the “Maximum mean fluorescence intensity” value in [7] is 18100 MFI; in experiment [8] it was 44800 MFI.

B2: F2.127.11 human-murine chimeric antibody (antibody, human IgG1, lambda, V domains shown)
VH: QVTLKESGPGILQPSQTLSLTCSFSGFSLSTFGMGVGWIRQPSGKGLEWLAHIWWDDDKHYNPALKSRLTISKDTSRNQVFLKIANVDTADGATYFCARDNWVSSLDYWGQGTSVIVSS
VL: QPVITQSSSASFSLGASAELTCTLSSQHSTYTIEWYQQQPLKPPKYVMGLKKDGSHSTGDGIPDRFSGSSSGADRYLSISNIQPEDEAIYICGVSDTIKEQFVYVFGGGTKVTVLG
notes: as for B1
In the case of B2, the OD450 came to 0.06 OD450 in experiment [1]; 0.06 OD450 in [2]; 0.07 OD450 in [3]; 0.05 OD450 in experiment [4]; 0.1 OD450 in experiment [5]; 0.05 OD450 in experiment [6]. The same molecule displayed an OD450 in [9] of 0.06 OD450. Besides, the EC50 in [7] came to 0.59 nM; in [8], 1.22 nM. The “Maximum mean fluorescence intensity” value in experiment [7] stood at 24400 MFI; in experiment [8] it was 58500 MFI.

B3: F2.205.9 human-murine chimeric antibody (antibody, human IgG1, lambda, V domains shown)
VH: QVTLKESGPGILQPSQTLSLTCSFSGFSLSTSGMGVGWIRQPSGKGLEWLAHIWWDDDEYYNPALKSRLTISKDTSKNQVFLKIANVDTADTATYYCARISIPYGYYDWFFDVWGTGTTVTVSA
VL: QAVVTQESALTTSPGETVTLTCRSSTGAVTTRNYANWVQEKPDHLFTGLIGGTNNRAPGVPARFSGSLIGDKAALTITGAQTEDEAIYFCALWYSNHFIFGSGTKVTVLG
notes: as for B1
As to B3, the OD450 in experiment [1] amounted to 0.05 OD450; in [2], 0.05 OD450; in experiment [3] it was 0.06 OD450; in experiment [4] it was 0.05 OD450; in experiment [5], 0.07 OD450; in experiment [6] it was 0.05 OD450. Further, the OD450 in experiment [9] amounted to 0.06 OD450. The results for the EC50 in experiment [7] and in experiment [8] were 0.38 nM and 0.72 nM, respectively. The entries for the “Maximum mean fluorescence intensity” value in [7] and in experiment [8] were 15500 MFI and 40200 MFI, respectively.

B4: F2.343.16 human-murine chimeric antibody (antibody, human IgG1, lambda, V domains shown)
VH: QVQLKQSGPGLVQPSQSLSITCTVSGFSLTGYGVQWVRQSPGKGLEWLGVIWGGGGTDYNAAFISRLNIIKDNSKSQVFFKMNSLQADDTAIYYCARYSKYGHFDVWGTGTAVTVSS
VL: QAVVTQESALTTSPGETVTLTCRSSTGAVTTSNYANWVQEKPDHLFTGLIGGTYNRVPGVPARFSGSLIGDKAALTITGAQTEDEAIYFCALWYSNHFWVFGGGTKLTVLG
notes: as for B1
As for B4, the OD450 in experiment [1] came to 0.05 OD450; in experiment [2], 0.05 OD450; in experiment [3], 0.06 OD450; in experiment [4], 0.05 OD450; in [5], 0.07 OD450; in [6], 0.05 OD450. The OD450 in experiment [9] came out at 0.06 OD450. Besides, the EC50 in experiment [7] was determined as 0.8 nM; in experiment [8], 1.15 nM. Moreover, the entries for the “Maximum mean fluorescence intensity” value in [7] and in experiment [8] were 19300 MFI and 50200 MFI, respectively.

For the origin of these results see patent US20240084003A1 (SIMCERE ZAIMING PHARMACEUTICAL, published 2024).
